The record followed here is article PMC11912399.

Assay [1] deals with CrImpαΔIBB (Chlamydomonas reinhardtii importin α IPA1, Cre04.g215850, lacking the autoinhibitory IBB domain) (Chlamydomonas reinhardtii). Put plainly: ELISA. In general terms: In an ELISA, binding on a coated surface is turned into a signal by an enzyme label.
Assay [2] shares this target. Put plainly: MST.

In assay [1], “DC Cas9 (Cas9 with the VirD2^O NLS fused to its C-terminus) (enzyme)” had a Kd of 5.01 nM.

Take “DN Cas9 (Cas9 with the VirD2^O NLS fused to its N-terminus) (enzyme)”: the dissociation constant Kd stood at 4.79 nM in assay [1] and 4.48 nM in assay [2].

In assay [1], “D^K1AR2AN Cas9 (DN Cas9 with K1A and R2A in the VirD2^O NLS) (enzyme)” showed a Kd of 13.3 nM.

In turn, “D^K1AR2AR15AN Cas9 (DN Cas9 with K1A, R2A and R15A in the VirD2^O NLS) (enzyme)” yielded a Kd in assay [1] of 42.6 nM.

“D^NopN Cas9 (Cas9 with the nopaline-type VirD2^N NLS fused to its N-terminus) (enzyme)”: the Kd in assay [1] is 7.88 nM.

“D^R15AN Cas9 (DN Cas9 with R15A in the VirD2^O NLS) (enzyme)” returned a Kd in assay [1] of 15.2 nM.

The substance “EC Cas9 (Cas9 with the VirE2^O NLS fused to its C-terminus) (enzyme)” yielded a Kd in assay [1] of 6.9 nM.

In the case of “EN Cas9 (Cas9 with the VirE2^O NLS fused to its N-terminus) (enzyme)”, the Kd in assay [1] came out at 7.81 nM.

As to “PN Cas9 (Cas9 with the putative endogenous CrPAP1 NLS fused to its N-terminus) (enzyme)”, in assay [1], the Kd was 17.1 nM.

Turning to “SC Cas9 (Cas9 with the SV40TAg NLS fused to its C-terminus) (enzyme)”, the Kd in assay [1] came to 9.21 nM.

Turning to “SN Cas9 (Cas9 with the SV40TAg NLS fused to its N-terminus) (enzyme)”, the results for the Kd in assay [1] and in assay [2] were 8.73 nM and 11.4 nM, respectively.

The term Kd denotes the concentration at which binding is half-saturated. A low value points to tighter binding.
